Measured values taken from patent US20150344570A1 (published 2015).

T1: FcγRIIb extracellular domain with C-terminal His tag (human, UniProt P31994 43-217)
T1 construct: extracellular domain; also called FcgRIIb; 2b; not shown: His tag at the C terminus
T1 sequence (looked up): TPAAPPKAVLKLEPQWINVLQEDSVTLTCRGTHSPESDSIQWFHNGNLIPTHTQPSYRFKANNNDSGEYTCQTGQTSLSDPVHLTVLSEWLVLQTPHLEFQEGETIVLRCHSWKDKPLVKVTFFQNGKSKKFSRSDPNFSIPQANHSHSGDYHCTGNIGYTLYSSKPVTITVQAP

B1: GpH7-B3 variant A327_09D/GpL16-k0 (antibody, human IgG1, kappa)
heavy: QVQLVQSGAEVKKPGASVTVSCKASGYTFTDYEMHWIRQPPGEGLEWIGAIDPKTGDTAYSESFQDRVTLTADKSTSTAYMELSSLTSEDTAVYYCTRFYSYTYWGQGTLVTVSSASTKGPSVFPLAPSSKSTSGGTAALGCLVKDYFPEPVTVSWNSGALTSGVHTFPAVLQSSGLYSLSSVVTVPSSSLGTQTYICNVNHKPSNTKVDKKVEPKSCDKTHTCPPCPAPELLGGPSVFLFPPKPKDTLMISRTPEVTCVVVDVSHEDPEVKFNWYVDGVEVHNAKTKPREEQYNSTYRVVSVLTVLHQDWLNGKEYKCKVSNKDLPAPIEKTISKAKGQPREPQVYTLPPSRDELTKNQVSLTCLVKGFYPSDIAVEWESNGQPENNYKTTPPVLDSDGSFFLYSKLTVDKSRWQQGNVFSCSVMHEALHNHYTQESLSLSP
light: DIVMTQSPLSLPVTPGEPASISCQASESLVHSNRNTYLHWYLQKPGQSPQLLIYKVSNRFSGVPDRFSGSGSGTDFTLKISRVEAEDVGVYYCSQNTHVPPTFGQGTKVEIERTVAAPSVFIFPPSDEQLKSGTASVVCLLNNFYPREAKVQWKVDNALQSGNSQESVTEQDSKDSTYSLSSTLTLSKADYEKHKVYACEVTHQGLSSPVTKSFNRGEC
notes: also called Ho Ab A327_09D
B2: GpH7-B3 variant G237_04F/GpL16-k0 (antibody, human IgG1, kappa)
heavy: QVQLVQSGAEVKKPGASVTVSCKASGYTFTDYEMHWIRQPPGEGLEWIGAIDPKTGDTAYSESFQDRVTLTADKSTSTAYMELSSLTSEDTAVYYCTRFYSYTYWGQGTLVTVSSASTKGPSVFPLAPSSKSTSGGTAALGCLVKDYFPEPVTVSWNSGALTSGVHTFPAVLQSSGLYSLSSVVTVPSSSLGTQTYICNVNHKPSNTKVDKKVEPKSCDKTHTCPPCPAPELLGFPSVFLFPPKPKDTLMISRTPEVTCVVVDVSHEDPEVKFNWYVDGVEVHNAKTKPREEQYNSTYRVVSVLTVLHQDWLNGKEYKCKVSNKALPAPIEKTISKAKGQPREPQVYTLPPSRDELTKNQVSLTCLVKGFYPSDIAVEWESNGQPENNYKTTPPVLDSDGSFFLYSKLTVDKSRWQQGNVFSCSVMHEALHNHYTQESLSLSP
light: B1 light
notes: also called Ho Ab G237_04F
B3: GpH7-B3 variant I332_06M/GpL16-k0 (antibody, human IgG1, kappa)
heavy: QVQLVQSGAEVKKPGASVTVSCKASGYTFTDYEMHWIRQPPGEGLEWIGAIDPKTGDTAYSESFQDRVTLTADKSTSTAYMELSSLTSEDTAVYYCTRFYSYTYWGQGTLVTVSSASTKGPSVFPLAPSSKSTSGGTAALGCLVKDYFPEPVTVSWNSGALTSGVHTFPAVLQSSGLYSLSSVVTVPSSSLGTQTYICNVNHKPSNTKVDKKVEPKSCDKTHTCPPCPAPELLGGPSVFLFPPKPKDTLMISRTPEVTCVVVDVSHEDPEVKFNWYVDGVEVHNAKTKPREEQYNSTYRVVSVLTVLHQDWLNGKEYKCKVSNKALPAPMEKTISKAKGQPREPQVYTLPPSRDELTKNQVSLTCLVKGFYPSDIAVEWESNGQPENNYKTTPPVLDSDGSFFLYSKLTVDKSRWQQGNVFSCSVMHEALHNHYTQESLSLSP
light: B1 light
notes: also called Ho Ab I332_06M
B4: GpH7-B3 variant K334_14T/GpL16-k0 (antibody, human IgG1, kappa)
heavy: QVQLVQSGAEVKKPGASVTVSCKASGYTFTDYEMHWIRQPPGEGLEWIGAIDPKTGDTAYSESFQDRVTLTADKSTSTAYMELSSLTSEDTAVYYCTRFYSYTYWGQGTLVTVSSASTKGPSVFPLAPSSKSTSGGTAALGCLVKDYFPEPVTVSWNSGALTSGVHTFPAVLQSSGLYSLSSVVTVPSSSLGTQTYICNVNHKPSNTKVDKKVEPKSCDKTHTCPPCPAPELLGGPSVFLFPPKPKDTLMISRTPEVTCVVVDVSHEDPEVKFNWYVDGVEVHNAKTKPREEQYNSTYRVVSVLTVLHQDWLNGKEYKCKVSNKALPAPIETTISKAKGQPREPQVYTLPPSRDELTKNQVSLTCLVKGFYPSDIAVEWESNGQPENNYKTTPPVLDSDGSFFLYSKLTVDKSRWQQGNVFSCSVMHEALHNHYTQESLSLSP
light: B1 light
notes: also called Ho Ab K334_14T
B5: GpH7-B3 variant K334_03V/GpL16-k0 (antibody, human IgG1, kappa)
heavy: not shown
light: B1 light
notes: also called Ho Ab K334_03V
B6: GpH7-B3 variant K326_06M/GpL16-k0 (antibody, human IgG1, kappa)
heavy: not shown
light: B1 light
notes: also called Ho Ab K326_06M
B7: GpH7-B3 variant H268_13S/GpL16-k0 (antibody, human IgG1, kappa)
heavy: not shown
light: B1 light
notes: also called Ho Ab H268_13S
B8: GpH7-B3 variant K326_09D/GpL16-k0 (antibody, human IgG1, kappa)
heavy: not shown
light: B1 light
notes: also called Ho Ab K326_09D
B9: GpH7-B3 variant K326_16H/GpL16-k0 (antibody, human IgG1, kappa)
heavy: not shown
light: B1 light
notes: also called Ho Ab K326_16H
B10: GpH7-B3 variant I332_14T/GpL16-k0 (antibody, human IgG1, kappa)
heavy: not shown
light: B1 light
notes: also called Ho Ab I332_14T
B11: GpH7-B3 variant P238_04F/GpL16-k0 (antibody, human IgG1, kappa)
heavy: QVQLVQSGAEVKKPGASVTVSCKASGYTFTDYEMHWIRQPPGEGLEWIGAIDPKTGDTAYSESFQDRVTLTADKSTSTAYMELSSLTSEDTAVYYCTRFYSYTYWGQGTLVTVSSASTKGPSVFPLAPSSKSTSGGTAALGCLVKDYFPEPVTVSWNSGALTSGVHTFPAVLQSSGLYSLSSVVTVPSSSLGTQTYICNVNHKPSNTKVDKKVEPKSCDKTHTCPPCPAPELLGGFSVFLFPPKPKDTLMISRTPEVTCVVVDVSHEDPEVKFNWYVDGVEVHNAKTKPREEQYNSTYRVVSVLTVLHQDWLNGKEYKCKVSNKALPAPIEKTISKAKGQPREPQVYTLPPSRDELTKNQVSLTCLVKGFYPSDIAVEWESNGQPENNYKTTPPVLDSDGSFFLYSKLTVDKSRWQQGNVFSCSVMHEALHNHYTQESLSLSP
light: B1 light
notes: also called Ho Ab P238_04F
B12: GpH7-B3 variant K326_15Y/GpL16-k0 (antibody, human IgG1, kappa)
heavy: not shown
light: B1 light
notes: also called Ho Ab K326_15Y
B13: GpH7-B3 variant H268_09D/GpL16-k0 (antibody, human IgG1, kappa)
heavy: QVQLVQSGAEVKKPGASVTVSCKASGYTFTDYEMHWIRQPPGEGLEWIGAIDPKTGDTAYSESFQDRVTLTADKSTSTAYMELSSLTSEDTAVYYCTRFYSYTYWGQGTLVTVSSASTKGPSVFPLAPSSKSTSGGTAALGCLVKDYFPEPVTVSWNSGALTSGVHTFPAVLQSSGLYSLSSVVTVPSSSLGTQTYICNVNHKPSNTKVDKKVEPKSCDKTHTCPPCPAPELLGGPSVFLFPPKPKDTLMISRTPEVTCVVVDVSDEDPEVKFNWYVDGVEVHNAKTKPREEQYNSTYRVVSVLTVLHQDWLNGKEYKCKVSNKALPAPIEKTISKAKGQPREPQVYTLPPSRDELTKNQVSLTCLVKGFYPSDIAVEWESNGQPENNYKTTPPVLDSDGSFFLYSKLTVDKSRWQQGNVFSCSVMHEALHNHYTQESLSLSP
light: B1 light
notes: also called Ho Ab H268_09D
B14: GpH7-B3 variant K334_04F/GpL16-k0 (antibody, human IgG1, kappa)
heavy: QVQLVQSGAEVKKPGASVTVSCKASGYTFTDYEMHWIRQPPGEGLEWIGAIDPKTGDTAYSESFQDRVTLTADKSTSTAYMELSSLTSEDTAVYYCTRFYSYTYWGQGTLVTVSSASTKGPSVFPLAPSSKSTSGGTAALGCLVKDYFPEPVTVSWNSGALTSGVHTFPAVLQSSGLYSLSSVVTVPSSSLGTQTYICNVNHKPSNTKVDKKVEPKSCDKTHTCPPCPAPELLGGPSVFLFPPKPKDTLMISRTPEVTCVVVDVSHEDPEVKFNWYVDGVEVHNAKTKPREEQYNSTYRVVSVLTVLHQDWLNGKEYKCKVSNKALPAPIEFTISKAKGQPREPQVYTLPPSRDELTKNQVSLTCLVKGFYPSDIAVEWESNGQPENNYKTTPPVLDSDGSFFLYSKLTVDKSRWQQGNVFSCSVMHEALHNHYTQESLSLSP
light: B1 light
notes: also called Ho Ab K334_04F
B15: GpH7-B3 variant K326_19Q/GpL16-k0 (antibody, human IgG1, kappa)
heavy: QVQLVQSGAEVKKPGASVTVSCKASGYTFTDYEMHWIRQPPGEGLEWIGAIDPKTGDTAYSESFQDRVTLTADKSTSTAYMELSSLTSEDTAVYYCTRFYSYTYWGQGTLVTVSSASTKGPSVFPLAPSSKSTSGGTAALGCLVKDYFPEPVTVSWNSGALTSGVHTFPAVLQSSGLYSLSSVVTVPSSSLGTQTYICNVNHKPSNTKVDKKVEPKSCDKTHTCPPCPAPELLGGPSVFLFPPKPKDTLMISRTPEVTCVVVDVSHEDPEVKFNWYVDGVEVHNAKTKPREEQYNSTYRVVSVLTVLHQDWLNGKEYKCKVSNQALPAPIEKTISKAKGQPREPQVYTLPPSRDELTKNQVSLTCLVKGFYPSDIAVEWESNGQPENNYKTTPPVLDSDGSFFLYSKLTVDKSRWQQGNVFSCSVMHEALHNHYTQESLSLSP
light: B1 light
notes: also called Ho Ab K326_19Q
B16: GpH7-B3 variant L328_02A/GpL16-k0 (antibody, human IgG1, kappa)
heavy: not shown
light: B1 light
notes: also called Ho Ab L328_02A
B17: GpH7-B3 variant I332_09D/GpL16-k0 (antibody, human IgG1, kappa)
heavy: not shown
light: B1 light
notes: also called Ho Ab I332_09D
B18: GpH7-B3 variant I332_04F/GpL16-k0 (antibody, human IgG1, kappa)
heavy: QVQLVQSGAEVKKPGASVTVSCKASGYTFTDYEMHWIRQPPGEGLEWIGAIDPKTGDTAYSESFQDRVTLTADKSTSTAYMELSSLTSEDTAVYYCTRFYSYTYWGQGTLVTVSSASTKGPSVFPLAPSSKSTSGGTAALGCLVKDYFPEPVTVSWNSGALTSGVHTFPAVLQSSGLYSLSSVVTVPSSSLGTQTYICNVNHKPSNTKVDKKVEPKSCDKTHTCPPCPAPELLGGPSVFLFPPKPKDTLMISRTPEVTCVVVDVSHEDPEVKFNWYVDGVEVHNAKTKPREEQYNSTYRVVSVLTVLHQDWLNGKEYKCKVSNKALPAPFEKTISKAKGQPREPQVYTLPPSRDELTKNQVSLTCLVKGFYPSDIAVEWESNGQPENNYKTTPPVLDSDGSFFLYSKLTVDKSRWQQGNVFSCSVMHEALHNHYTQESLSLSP
light: B1 light
notes: also called Ho Ab I332_04F
B19: GpH7-B3 variant A330_01G/GpL16-k0 (antibody, human IgG1, kappa)
heavy: not shown
light: B1 light
notes: also called Ho Ab A330_01G
B20: GpH7-B3 variant K326_20W/GpL16-k0 (antibody, human IgG1, kappa)
heavy: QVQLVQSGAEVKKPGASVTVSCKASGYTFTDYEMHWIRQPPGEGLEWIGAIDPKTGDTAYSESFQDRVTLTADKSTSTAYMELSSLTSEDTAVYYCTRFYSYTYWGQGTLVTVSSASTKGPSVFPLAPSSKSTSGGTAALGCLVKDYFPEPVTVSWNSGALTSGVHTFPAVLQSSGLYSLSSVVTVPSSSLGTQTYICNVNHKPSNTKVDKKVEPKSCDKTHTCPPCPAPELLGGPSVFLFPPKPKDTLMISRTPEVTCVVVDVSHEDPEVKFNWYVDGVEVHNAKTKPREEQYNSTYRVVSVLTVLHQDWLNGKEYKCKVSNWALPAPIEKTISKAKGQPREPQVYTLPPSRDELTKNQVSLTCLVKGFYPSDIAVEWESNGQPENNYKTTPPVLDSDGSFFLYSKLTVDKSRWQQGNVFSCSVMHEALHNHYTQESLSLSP
light: B1 light
notes: also called Ho Ab K326_20W
B21: GpH7-B3 variant H268_01G/GpL16-k0 (antibody, human IgG1, kappa)
heavy: not shown
light: B1 light
notes: also called Ho Ab H268_01G
B22: GpH7-B3 variant K334_10E/GpL16-k0 (antibody, human IgG1, kappa)
heavy: not shown
light: B1 light
notes: also called Ho Ab K334_10E
B23: GpH7-B3 variant K334_08L/GpL16-k0 (antibody, human IgG1, kappa)
heavy: not shown
light: B1 light
notes: also called Ho Ab K334_08L
B24: GpH7-B3 variant K334_07I/GpL16-k0 (antibody, human IgG1, kappa)
heavy: not shown
light: B1 light
notes: also called Ho Ab K334_07I
B25: GpH7-B3 variant H268_10E/GpL16-k0 (antibody, human IgG1, kappa)
heavy: not shown
light: B1 light
notes: also called Ho Ab H268_10E
B26: GpH7-B3 variant L235_20W/GpL16-k0 (antibody, human IgG1, kappa)
heavy: not shown
light: B1 light
notes: also called Ho Ab L235_20W
B27: GpH7-B3 variant I336_08L/GpL16-k0 (antibody, human IgG1, kappa)
heavy: not shown
light: B1 light
notes: also called Ho Ab I336_08L
B28: GpH7-B3 variant I332_15Y/GpL16-k0 (antibody, human IgG1, kappa)
heavy: not shown
light: B1 light
notes: also called Ho Ab I332_15Y
B29: GpH7-B3 variant K334_13S/GpL16-k0 (antibody, human IgG1, kappa)
heavy: not shown
light: B1 light
notes: also called Ho Ab K334_13S
B30: GpH7-B3 variant I332_10E/GpL16-k0 (antibody, human IgG1, kappa)
heavy: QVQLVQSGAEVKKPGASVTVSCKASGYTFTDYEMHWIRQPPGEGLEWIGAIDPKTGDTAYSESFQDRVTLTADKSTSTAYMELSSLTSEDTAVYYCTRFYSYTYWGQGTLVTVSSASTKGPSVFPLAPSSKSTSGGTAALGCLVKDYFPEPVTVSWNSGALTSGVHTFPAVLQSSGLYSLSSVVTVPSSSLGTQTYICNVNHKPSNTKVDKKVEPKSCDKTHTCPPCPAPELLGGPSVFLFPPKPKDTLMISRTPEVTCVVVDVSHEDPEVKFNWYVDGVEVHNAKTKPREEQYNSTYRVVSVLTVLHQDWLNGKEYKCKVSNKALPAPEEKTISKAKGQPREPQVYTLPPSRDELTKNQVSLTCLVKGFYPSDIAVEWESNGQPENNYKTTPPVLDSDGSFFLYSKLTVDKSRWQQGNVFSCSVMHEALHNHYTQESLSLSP
light: B1 light
notes: also called Ho Ab I332_10E
B31: GpH7-B3 variant P238_09D/GpL16-k0 (antibody, human IgG1, kappa)
heavy: not shown
light: B1 light
notes: also called Ho Ab P238_09D
B32: GpH7-B3 variant L328_13S/GpL16-k0 (antibody, human IgG1, kappa)
heavy: not shown
light: B1 light
notes: also called Ho Ab L328_13S
B33: GpH7-B3 variant K334_05P/GpL16-k0 (antibody, human IgG1, kappa)
heavy: not shown
light: B1 light
notes: also called Ho Ab K334_05P
B34: GpH7-B3 variant G236_09D/GpL16-k0 (antibody, human IgG1, kappa)
heavy: not shown
light: B1 light
notes: also called Ho Ab G236_09D
B35: GpH7-B3 variant A327_10E/GpL16-k0 (antibody, human IgG1, kappa)
heavy: not shown
light: B1 light
notes: also called Ho Ab A327_10E
B36: GpH7-B3 variant G237_20W/GpL16-k0 (antibody, human IgG1, kappa)
heavy: not shown
light: B1 light
notes: also called Ho Ab G237_20W
B37: GpH7-B3 variant K326_14T/GpL16-k0 (antibody, human IgG1, kappa)
heavy: not shown
light: B1 light
notes: also called Ho Ab K326_14T
B38: GpH7-B3 variant K334_02A/GpL16-k0 (antibody, human IgG1, kappa)
heavy: not shown
light: B1 light
notes: also called Ho Ab K334_02A
B39: GpH7-B3 variant K326_04F/GpL16-k0 (antibody, human IgG1, kappa)
heavy: not shown
light: B1 light
notes: also called Ho Ab K326_04F
B40: GpH7-B3 variant H268_18N/GpL16-k0 (antibody, human IgG1, kappa)
heavy: not shown
light: B1 light
notes: also called Ho Ab H268_18N
B41: GpH7-B3 variant K326_08L/GpL16-k0 (antibody, human IgG1, kappa)
heavy: not shown
light: B1 light
notes: also called Ho Ab K326_08L
B42: GpH7-B3 variant K326_03V/GpL16-k0 (antibody, human IgG1, kappa)
heavy: not shown
light: B1 light
notes: also called Ho Ab K326_03V
B43: GpH7-B3 variant K326_10E/GpL16-k0 (antibody, human IgG1, kappa)
heavy: not shown
light: B1 light
notes: also called Ho Ab K326_10E
B44: GpH7-B3 variant G236_10E/GpL16-k0 (antibody, human IgG1, kappa)
heavy: not shown
light: B1 light
notes: also called Ho Ab G236_10E

target: T1, FcγRIIb extracellular domain with …; assay: SPR, relative binding, HoCon Ab = 100
Experimental: Analysis of interaction between objective antibody and the FcγR was carried out using Biacore T100 (GE Healthcare). HBS-EP+ (GE Healthcare) was used as the running buffer, and the measurement temperature was set to 25° C. Chips produced by immobilizing the antigen peptide by the amine coupling method to a Series S Sencor Chip CM5 (GE Healthcare), or alternatively, chips produced by allowing preliminarily biotinylated antigen peptides to interact with and immobilize onto a Series S Sensor Chip SA (certified) (GE Healthcare) were used. Antibodies of interest were captured onto an antigen peptide-immobilized chip, and allowed to interact to each FcγR diluted with running buffer. To regenerate and repeatedly use the chip, the antibodies captured on the chip were washed off by reacting 10 mM glycine-HCl, pH 1.5.

Ho/Con_2b | Binder
175 % of control | B1
140 % of control | B2
106 % of control | B3
138 % of control | B4
145 % of control | B5
193 % of control | B6
186 % of control | B7
240 % of control | B8
131 % of control | B9
106 % of control | B10
209 % of control | B11
162 % of control | B12
298 % of control | B13
115 % of control | B14
163 % of control | B15
117 % of control | B16
182 % of control | B17
117 % of control | B18
102 % of control | B19
132 % of control | B20
158 % of control | B21
129 % of control | B22

Ho/Con_2b | Binder
114 % of control | B23
137 % of control | B24
275 % of control | B25
116 % of control | B26
103 % of control | B27
109 % of control | B28
117 % of control | B29
181 % of control | B30
207 % of control | B31
147 % of control | B32
112 % of control | B33
207 % of control | B34
148 % of control | B35
166 % of control | B36
177 % of control | B37
110 % of control | B38
160 % of control | B39
179 % of control | B40
168 % of control | B41
184 % of control | B42
237 % of control | B43
114 % of control | B44
